# Test results taken from publication PMC12326988, “Synthetic host defense peptide inhibits SARS-CoV-2 replication in vitro” (Antimicrobial Agents and Chemotherapy, 2025).
# Molecular target: binding between SARS-CoV-2 Wuhan RBD-Fc and hACE2-AP (UniProt P0DTC2+Q9BYF1)
# Parameters: species or system SARS-CoV-2; human
# Sequence of binding between SARS-CoV-2 Wuhan RBD-Fc and hACE2-AP (Q9BYF1 18-740, one chain of several): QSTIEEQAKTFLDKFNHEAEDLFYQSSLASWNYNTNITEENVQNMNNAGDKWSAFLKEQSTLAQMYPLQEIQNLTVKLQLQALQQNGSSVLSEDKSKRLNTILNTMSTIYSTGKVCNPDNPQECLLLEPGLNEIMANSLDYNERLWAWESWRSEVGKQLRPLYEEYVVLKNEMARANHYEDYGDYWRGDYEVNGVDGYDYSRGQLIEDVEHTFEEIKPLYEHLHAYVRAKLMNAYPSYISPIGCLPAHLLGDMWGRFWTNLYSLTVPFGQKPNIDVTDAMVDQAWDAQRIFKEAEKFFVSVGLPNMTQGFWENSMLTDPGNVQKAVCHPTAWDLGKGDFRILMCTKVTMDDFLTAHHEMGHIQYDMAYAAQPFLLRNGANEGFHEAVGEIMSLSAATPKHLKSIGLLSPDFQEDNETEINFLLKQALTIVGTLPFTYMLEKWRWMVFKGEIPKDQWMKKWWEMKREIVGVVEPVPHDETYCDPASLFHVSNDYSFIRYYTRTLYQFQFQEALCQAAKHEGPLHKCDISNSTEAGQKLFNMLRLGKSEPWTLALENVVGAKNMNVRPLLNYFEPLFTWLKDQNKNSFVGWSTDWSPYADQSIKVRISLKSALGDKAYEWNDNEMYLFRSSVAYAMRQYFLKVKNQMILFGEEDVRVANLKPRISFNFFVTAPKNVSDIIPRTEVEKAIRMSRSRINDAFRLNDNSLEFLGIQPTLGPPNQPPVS
substance,measurement,value
shACE2,"IC50, inhibition of hACE2-AP to RBD-Fc interaction",1.42 µg/mL
